Consider one molecule from article PMC10288592, “A linker protein from a red-type pyrenoid phase separates with Rubisco via oligomerizing sticker motifs” (Proceedings of the National Academy of Sciences of the …, 2023).

In the experiment the target is T1, PYCO1 (pyrenoid component 1), recombinant, residues 31 to 592 (Phaeodactylum tricornutum).
T1 chain: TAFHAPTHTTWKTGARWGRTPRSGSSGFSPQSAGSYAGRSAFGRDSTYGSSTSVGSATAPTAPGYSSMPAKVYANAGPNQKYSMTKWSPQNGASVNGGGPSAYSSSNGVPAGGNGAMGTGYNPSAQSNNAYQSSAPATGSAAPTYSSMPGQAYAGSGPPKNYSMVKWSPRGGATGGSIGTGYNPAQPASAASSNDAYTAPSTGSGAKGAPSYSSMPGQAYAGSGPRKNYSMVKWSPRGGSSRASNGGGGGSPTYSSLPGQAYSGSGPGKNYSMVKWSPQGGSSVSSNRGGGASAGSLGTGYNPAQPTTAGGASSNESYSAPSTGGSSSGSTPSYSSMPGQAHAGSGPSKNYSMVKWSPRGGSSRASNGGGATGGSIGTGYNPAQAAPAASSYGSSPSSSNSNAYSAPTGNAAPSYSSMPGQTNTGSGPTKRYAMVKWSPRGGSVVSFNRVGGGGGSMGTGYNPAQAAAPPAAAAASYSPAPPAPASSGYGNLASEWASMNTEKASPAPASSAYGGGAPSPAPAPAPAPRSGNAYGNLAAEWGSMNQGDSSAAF
Description: co-sedimentation; heterotypic: Rubisco and PYCO1 (or variant) mixed at various ratios, 20 mM Tris-HCl pH 8.0, 150 mM NaCl; condensates sedimented and analysed. The settings on record: both partners purified.

B1: Phaeodactylum tricornutum Rubisco (L8S8 holoenzyme) (complex)
chain 1: MSQSVSERTRIKSDRYESGVIPYAKMGYWDAAYAVKNTDVLALFRITPQPGVDPVEAAAAVAGESSTATWTVVWTDLLTACDRYRAKAYRVDPVPNTTDQYFAFIAYECDLFEEGSLANLTASIIGNVFGFKAVSALRLEDMRIPHSYLKTFQGPATGVIVERERLNKYGIPLLGATVKPKLGLSGKNYGRVVYEGLKGGLDFLKDDENINSQPFMRWRERFLYCMEGINRASAATGETKGSYLNITAGTMEEVYKRAEYAKTVGSIVVMIDLVMGYTAIQSAAIWARDNDLILHLHRAGNSTYARQKNHGINFRVICKWMRMCGVDHIHAGTVVGKLEGDPLMIKGFYDTLLLTHLNVNLPYGIFFEMTWASLRKCMPVASGGIHCGQMHQLVHYLGDDVVLQFGGGTIGHPDGIQAGATANRVALEAMILARNEGADYFNSDIGPQILRNAAKTCGPLQTALDLWKDISFNYTSTDTSDFSVTPTANV
chain 2: MRLTQGCFSFLPDLTDQQIEKQIAYCITKGWAMNVEWTDDPHPRNSYWELWGLPLFDVKDPASVMFELREARKSCAAGYIRINAFNAAYGTESCVMSFIVNRPSNEPGFYLERQELEGRRIAYTTKSYSVQANPEGGRY
notes: Rubisco large subunit (LSU) of Phaeodactylum tricornutum, Form ID; Rubisco small subunit (SSU) of Phaeodactylum tricornutum, Form ID; For microscopy spiked with 0.3% or 0.6% atto-594-labeled PtRubisco; also called PtRubisco; diatom Rubisco; source: purified directly from diatoms (P. tricornutum); endogenous, soluble algal lysate (immunoprecipitation); copies: 8 + 8
Consider B1, for which the “stoichiometry N” value was 3 Rubisco (L8S8) per PYCO1.

Broadly, the stoichiometry N is the number of molecules, sites or subunits per partner or assembly.
